Results taken from patent US20220306762A1 (CRYSTAL BIOSCIENCE, published 2022).

T1: His-tagged mouse CD38 (ACRO Biosystems #CD8-M5223) (mouse, UniProt P56528 45-304)
T1 construct: bought recombinant protein with His tag; also called Murine
T1 sequence (looked up): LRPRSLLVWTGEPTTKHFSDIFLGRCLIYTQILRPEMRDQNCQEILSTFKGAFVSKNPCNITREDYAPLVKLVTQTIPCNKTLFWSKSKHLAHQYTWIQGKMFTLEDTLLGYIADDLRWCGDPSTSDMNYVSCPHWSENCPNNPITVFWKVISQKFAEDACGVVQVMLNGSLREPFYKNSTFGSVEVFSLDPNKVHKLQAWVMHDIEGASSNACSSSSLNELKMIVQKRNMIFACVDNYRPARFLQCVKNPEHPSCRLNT

T2: murine CD38 on transiently transfected Expi293 cells (Origene MC208001) (murine, UniProt P56528 1-304)
T2 construct: whole, on cells; also called Murine (FACs)
T2 sequence (looked up): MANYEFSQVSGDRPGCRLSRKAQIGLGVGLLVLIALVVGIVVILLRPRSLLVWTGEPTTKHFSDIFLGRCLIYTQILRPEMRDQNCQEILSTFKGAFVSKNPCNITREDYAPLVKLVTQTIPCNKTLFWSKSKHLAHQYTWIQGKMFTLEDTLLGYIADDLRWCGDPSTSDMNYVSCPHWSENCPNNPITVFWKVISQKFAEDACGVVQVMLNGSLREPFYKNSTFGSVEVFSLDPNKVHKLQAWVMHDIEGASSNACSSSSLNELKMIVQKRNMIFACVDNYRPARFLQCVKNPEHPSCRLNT


Assays:
[1] = target: T3, His-tagged human CD38 (ACRO Biosystems cat #CD8-H5224) (human, UniProt P28907 43-300); test: ELISA, coated His-CD38
T3 construct: bought recombinant protein with His tag

[2] = target: T4, His-tagged cynomolgus monkey CD38 (ACRO Biosystems cat #CD8-05223) (cynomolgus monkey, UniProt Q5VAN0 43-301); test: ELISA, coated His-CD38
T4 construct: bought recombinant protein with His tag

[3] = target: T1, His-tagged mouse CD38 (ACRO Biosystems …); test: ELISA, coated His-CD38
[4] = target: T3, His-tagged human CD38 (ACRO Biosystems …); test: SPR, captured scFv-Fc, His-CD38 analyte;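 also: SPR on a Carterra LSA, scFv-Fc captured by anti-human Fc on HC30M chip, His-tagged CD38 (human, mouse, cynomolgus) flowed as analyte in eight 1:2 steps from 400 nM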
[5] = target: T4, His-tagged cynomolgus monkey CD38 (ACRO …); test: SPR, captured scFv-Fc, His-CD38 analyte;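 also: SPR on a Carterra LSA, scFv-Fc captured by anti-human Fc on HC30M chip, His-tagged CD38 (human, mouse, cynomolgus) flowed as analyte in eight 1:2 steps from 400 nM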
[6] = target: T5, human CD38 on transiently transfected Expi293 cells (Origene #SC321273) (human, UniProt P28907 1-300); test: flow cytometry, transfected Expi293 cells;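 also: antibody binding to Expi293 cells transiently expressing human or murine CD38, antibodies applied at 10 ug/ml for 60 min on ice, read by flow cytometry as percent gated cells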
T5 construct: whole, on cells; also called Human (FACs)

[7] = target: T2, murine CD38 on transiently transfected …; test: flow cytometry, transfected Expi293 cells;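 also: antibody binding to Expi293 cells transiently expressing human or murine CD38, antibodies applied at 10 ug/ml for 60 min on ice, read by flow cytometry as percent gated cells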

Row | Binder | ELISA 1 ug/ml [1] | ELISA 1 ug/ml [2] | ELISA 1 ug/ml [3] | Kd [4] [nM] | Kd [5] [nM] | FACs 10 ug/ml (percent gated) [6] [%] | FACs 10 ug/ml (percent gated) [7] [%]
1 | 40769p1.1.A2 (scFv, V domains shown, tested as scFv-Fc supernatant) VH: EVQLLESGGGLVQPGGSLRLSCAASGFLFDDYGMSWVRQAPGKGLEWVSAISYKGGSTYYADSVKGRFTISRDNSKNTLYLQMSSLRAEDTAVYYCAKDHKWNYYGMDVWGQGTTVTVSS VL: QSVLTQPPSASGTPGQRVTISCSGSTSNIGNDNYVSWYQQLPGTAPRLLIYKDDQRPSGVPDRFSGSKSGTSASLAISGLQSEDEADYYCGTWDDRLNAWVFGGGTKLTVL | 1.61 | 1.73 | 0.049 | 0.319 | 0.35 | 78.5 | 2.65
2 | 40769p1.1.B8 (scFv, V domains shown, tested as scFv-Fc supernatant) VH: EVQLLESGGGLVQPGGSLRLSCAASGFTFEDYAMSWVRQAPGKGLEWVSVISSKGGSTSNADSVKGRFTISRDNSKNTLYLQMNSLRAEDTAVYYCAKGMERQYYSYNAMDVWGQGTTVTVSS VL: QSVLTQPPSASGTPGQRVTISCSGSNSNIDVDYVYWYQQLPGTAPRLLIYKDDQRPSGVPDRFSGSKSGTSASLAISGLQSEDEADYYCATWDDNLNSWLFGGGTKLTVL | 1.64 | 1.75 | 0.048 | 0.101 | 1.62 | 81.4 | 0.04
3 | 40769p1.1.B10 (scFv, V domains shown, tested as scFv-Fc supernatant) VH: EVQLLESGGGLVQPGGSLRLSCTASGITFSRFNMFWVRQAPGKGLEFVASIRDDGSWTYYADSVKGRFTISRDNSKNTLYLQMNSLRAEDTAVYYCAKDYNSKDFIYHYVMDVWGQGTTVTVSS VL: QSVLTQPPSASGTPGQRVTISCSGRNSNIGNNVVNWYQQLPGTAPKLLIYRNQERPSGVPDRFSGSKSGTSASLAISGLQSEDEADYYCSTWDDSLNGWVFGGGTKLTVL | 1.5 | 2.05 | 0.049 | 8.02 | 96400 | 76.4 | 0.38
4 | 40769p1.1.H3 (scFv, V domains shown) VH: EVQLLESGGGLVQPGGSLRLSCAASGFAFNDYLMSWVRQAPGKGLEWVSTISWSGGSTYYADSVKGRFTISRDNSKNTLYLQMNSLRAEDTALYYCARDRYRYNYYYFMDVWGQGTTVTV VL: QSVLTQPPSASGTPGQRVTISCSGSTSDSPYDRIDWYQQLPGTAPKLLIYKDDQRPSGVPDRFSGSKSGTSASLAISGLQSEDEADYYCATWDAMLSAWVFGGGTKLTVL | – | – | 0.049 | – | – | 82.5 | 3.84
5 | 40769p1.1.B12 (scFv, V domains shown, tested as scFv-Fc supernatant) VH: EVQLLESGGGLIQPGGSLRLSCTASGFDFSSYGMHWVRQAPGKGLEWVGIISDSGGTTYYADSVKGRFTISRDNSKNTMYLQMNSLRAEDTALYYCASYIMDVWGQGITVTVSS VL: QSVLTQPPSASGTPGQRVTISCSGSSSNVGGNSVYWYQQLPGTAPKLLFYGNHRRPSGVPDRFSGSKSGTSASLAISGLQSEDEADYYCAVWDDSLNAWVFGGGTKLTVL | 1.56 | 1.91 | 0.472 | 32.4 | 135 | 71.1 | 31.9
6 | 40769p1.1.E2 (scFv, V domains shown, tested as scFv-Fc supernatant) VH: EVLLLESGGGLVQPGGSLRLSCAASGFTFSDYWMSWVRQAPGKGLEWVSTISISAGIIYYADSVKGRFTISRDNSKNTLYLQMNSLRAEDTAVYYCAKDNWNDYYGMDVWGQGTTVTVSS VL: QSVLTQPPSASGTPGQRVTMSCSGNNQNIRDNYVYWYQQVPGTAPKLLIYKDDQRPSGVPDRFSGSKSGTSASLAISGLQSEDEADYYCATWDGSLKARVFGGGTKLTVL | 1.65 | 1.98 | – | 3.23 | 4.4 | 82 | –
7 | 40769p1.1.G10 (scFv, V domains shown, tested as scFv-Fc supernatant) VH: EVQLLESGGGLVQPGGSLRLSCAASGFTFSDYWMNWVRQAPGKGLEWVSTISSGGSMIYHADSVKGRFTISRDNSKNTLYLQMNSLRPEDTAVYYCAKDNWNDYYGMDVWGQGTTVTVSS VL: QSVLTQPPSASGTPGQRVNISCSGSSSNIRYNYVYWYQQVPGTAPKLLIYKDDQRPSGVPDRFSGSESGTSASLAISGLQSEDEADYYCATWDGSLNARVFGGGTKLTVL | 1.75 | 2.11 | – | 78.9 | 154 | 77.5 | –
8 | 40769p1.1.H1 (scFv, V domains shown, tested as scFv-Fc supernatant) VH: EVQLLESGGGLVQPGGSLRLSCAASGFTFSDYWMNWVRQAPGKGLEWVSTISSGGSMIYHADSVKGRFTISRDNSKNTLYLQMNSLRPEDTAVYYCAKDNWNDYYGMDVWGQGTTVTVSS VL: QSVLTQPPSASGTPGQRVNISCSGSSSNIRYNYVYWYQQVPGTAPKLLIYKDDQRPSGVPDRFSGSKSGTSASLAISELQSEDEADYYCATWDGSLNARVFGGGTKLTVL | 1.86 | 2.05 | 0.049 | 85.7 | 59.5 | 76.2 | 3.13
9 | 40596p1.E4 (scFv, V domains shown, tested as scFv-Fc supernatant) VH: EVQLLESGGGLVQPGGSLRLSCAASGFDFSGSAMSWVRQAPGKGLEYVAGLGWSGSFIYYADSVKGRSTISRDNSKNTLYLQLNSLRAEDTAVYYCARNPGFGEMDVWGQGTTVTVSS VL: EIVLTQSPGSLSLSPGERATLSCRASQTVGSNLAWYQQKPGQAPRLLIYGASTRATDIPDRFSGSGSGTEFTLTISSLQSEDFAVYYCQQYNSWPPLTFGGGTKVEIK | 1.93 | 1.77 | 1.72 | 56.9 | 17.8 | 64.2 | 34
10 | 40769p1.1.G5 (scFv, V domains shown, tested as scFv-Fc supernatant) VH: EVQLLESGGGFVQPGGSLRLSCAASGFNFNNAWMNWVRQAPGKGLEWVGIINGDGTNTYYADSVKGRFTISRDNSKNTLYLQMSSLRAEDTAIYYCARDNKLNDYYYAMDVWGQGTTVTV VL: QSVLTQPSSASGTPGQRVTISCSGGSSNIHANYVYWYQQLPGTAPKLLIYRNSQRPSGVPDRFSGSKSGTSASLAISGLQSEDEADYYCGTWDNILNVWVFGGGTKLTVL | 1.72 | 2.01 | – | 3.11 | 11.5 | 84.4 | –
11 | 40769p1.2.E3 (scFv, V domains shown, tested as scFv-Fc supernatant) VH: EVQLLESGGDLVQPGGSLRLSCGASGFTFSDHYMSWVRQAPGKGLEWVADISARGSNTWYADSVKGRFTISRDNSENTLYLQMNSLRAEDTAVYYCAKNWNYNYGMDVWGQGTTVTVSS VL: QSVLTQAPSASGTPGQRVTISCSGSSIQNNYVSWYQQLPGTAPKLLIYRNFERPSGVPDRFSASKSGTSASLAISGLQSEDEADYYCASWDDSLNWVFGGGTKLTVL | 1.59 | 1.7 | – | 2.24 | 2.11 | 80.5 | –
12 | 40769p1.2.B4 (scFv, V domains shown, tested as scFv-Fc supernatant) VH: EVQLLESGGDLVQPGGSLRLSCGASGFTFSDHYMSWVRQAPGKGLEWVADISARGSNTWYADSVKGRFTISRDNSENTLYLQMNSLRAEDTAVYYCAKNWNYNYGMDVWGHGTTVTVSS VL: QSVLTQAPSASGTPGQRVTISCSGSSIQNNYVSWYQQLPGTAPKLLIYRNFERPSGVPDRFSASKSGTSASLAISGLQSEDEADYYCASWDDSLNWVFGGGTKLTVL | 1.55 | 1.73 | – | 2.38 | 2.34 | 81 | –
13 | 40769p1.2.F9 (scFv, V domains shown, tested as scFv-Fc supernatant) VH: EVQLLESGGDLVQPGGSLRLSCGASGFTFSDHYMSWVRQAPGKGLEWVADISARGSNTWYADSVKGRFTISRDNSENTLYLQMNSLRAEDTAVYYCAKNWNYNYGMDVWGQGTTVTVSS VL: QSVLTQAPSASGTPGQRVTISCSGSSIQNNYVSWYQQLPGTAPKLLIYRNFERPSGVPDRFSASKSGTSASLAISGLQSGDEADYYCASWDDSLNWVFGGGTKLTVL | 1.47 | 1.56 | – | 17.1 | – | 79.4 | –
